Laboratory results taken from PMC8402785.

How the values were obtained:
[1] = molecular target: recombinant HAdV-C5 fibre knob protein (human adenovirus type 5 (HAdV-C5))
[2] = molecular target: recombinant HAdV-D49 fibre knob protein (human adenovirus type 49 (HAdV-D49)); experiment: gel electrophoresis with Coomassie staining, with or without denaturing agent; 5 µg and 10 µg of recombinant knob, with or without treatment with a denaturing agent, stained with Coomassie; validation of knob trimerisation

Substance | stoichiometry N [1] | stoichiometry N [2]
recombinant HAdV-C5 fibre knob protein (domain or fragment) | 3 | –
recombinant HAdV-D49 fibre knob protein (domain or fragment) | – | 3
